According to the supplement of paper PMC9170038:

Tested on: MS2 coat protein
Assay: apparent KD of MS2 coat protein; higher = weaker reporter binding
Settings: Eterna round: R107
Summary of the method: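 Each design's apparent KD comes from the median of binding-curve fits to its normalised clusters. Those clusters carried RNA switches transcribed on-chip from Illumina sequencing clusters. SNAP-549-labelled MS2 coat protein was titrated onto them in twofold steps (0.7 or 1.5 nM to 3 µM; per step 0.8–1.5 h down to 10–20 min). Conditions were 100 mM Tris-HCl pH 7.5, 80 mM KCl, 4 mM MgCl2, without or with constant ligand.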

[1] = input ligand: theophylline 20 uM
[2] = input ligand: tryptophan 2.4 mM
[3] = input ligand: theophylline 2 mM

Sequence	apparent KD of MS2 coat protein (input ligand: arginine 13.2 mM)	apparent KD of MS2 coat protein [1]	apparent KD of MS2 coat protein [2]	apparent KD of MS2 coat protein (input ligand: none)	apparent KD of MS2 coat protein [3]
AUCGUACCUGAUGAUACCAGCAUGUGAUCAUAACAUGAGGAUCACCCAUGUAAUCAGUGAUGCCCUUGGCAGCAUAGUCGAUACA [Same State - Theophylline B (Freestyle 6)]	0.0808 µM	0.174 µM	0.149 µM	–	–
GGGCCCGGGCGCGAGCCCGGGCCCAUUGAUACCAGUGAAAAUAUACGCCCUUGGCAGCGAAUCCUAACAUGAGGAUCACCCAUGU [5.A]	0.0377 µM	0.0657 µM	0.0334 µM	0.0372 µM	0.0709 µM
GUUUAAAGGUCGGCCGCCACUGUAGGAUGUGUUCUUUCACAUGAGGAUCACCCAUGUUGUUAUUAUAGGACCGGGAUUUUAGGAC [39MS split4]	0.0258 µM	0.0331 µM	–	–	0.0274 µM
GCUGUUGCGGUGAGGUAUCCGGCUGUGGAAGGAGCGCGGAAUGCCGCAGGUAGGUCGCCACAUGAGGAUCACCCAUGUCGAUAUA [Atzalama]	0.0256 µM	0.0452 µM	0.0212 µM	0.0272 µM	0.035 µM
AUGUCGUUGAAUACAGCGGCAUGGAGUGAUACCAGAAUGAUCAAAUUCCCUUGGCAGCAUCACAUGAGGAUCACCCAUGUUCGAU [SSTheo A #16]	0.0222 µM	0.0332 µM	0.0409 µM	–	–
GUAGCUAUCGCGGCCGCCACUAAACCGGAAACGGAACAGUAGGAUCACCAUUGUGGCGAAAGCCAUAGGACCGGGCGAUAGCUAC [TryBS - Double Magnet system 2]	0.601 µM	0.83 µM	0.08 µM	0.502 µM	1.21 µM
AGUCUUAAAGGAAGGAGCGCAAUCAUAACAUGAGGAUCACCCAUGUCGAGGUGAGGGUCAUUGCAGGUAGGUCGCCUUACUAAGA [Same State - Arginine B (Freestyle 7)]	0.128 µM	0.0887 µM	0.0784 µM	0.0796 µM	0.134 µM
CAUGGGUGGUAUCACCCAUCCAUAGGUGAUACCAGCAUCGAAAGAUGCCCUUGGCAGCACCAACAUGAGGAUCACCCAUGUAAUA [(M)'-(T)'-(M)''-(T1)-(T2)-(M1)-(M2)_Design2]	0.0481 µM	0.189 µM	0.354 µM	–	–
UCGUUUGAGGCGGCCGCCACUGGUCUCAUGGUCAACAUGAGGAUCACCCAUGUAUCUUUGCUAAGCAGGACCGGGCCUCGAGCGA [#19 Exclusion Tryptophan B]	0.0435 µM	0.0874 µM	–	–	0.0875 µM
AUCAUCAGUUCGGCCGCCACUGUUUGGCACAGUUGUAUCGUACAUGAGGAUCACCCAUGUCACCACAGGACCGGGAACGCCGUCG [theeternabot_exclusion_MS2_Trp_B_1]	0.0163 µM	0.0216 µM	–	–	0.0183 µM
ACAUGAGGAUCACCCAUGUUAAGCAGGGUGCGAGGACCGGUACGGCCGCCACUCGGACAUUAUUACGAGUGAAUGGUAACGAUGU [#14 Exclusion Tryptophan A]	0.0233 µM	0.0298 µM	0.0217 µM	0.0182 µM	0.0245 µM
GGAUAUGGUGAAAGAGAGAAGAGAGAUGAUACCAGUAAGAGAAGAUGCCCUUGGCAGCAUAGAGACAUGAGGAUCACCCAUGUAA [solution]	0.012 µM	0.0252 µM	0.0156 µM	0.0229 µM	0.0243 µM
GAGCUGAUGUAGAGCGAAUAUACGAGAGAUACCAGUACAGAAAUGUACCCUUGGCAGCUCAACUUUACAUGAGGAUCACCCAUGU [Ex Theophylline A 22]	0.0144 µM	0.0152 µM	0.0143 µM	–	–
AUUAAUAGUUGUGAUACCAGACGAACAUGAGGAUCACCCAUGUAACUUUUAGGUGUUGUAGUCCCUUGGCAGCACUAUUUAGUUA [JR_SSTheophyB_Sub014]	0.0293 µM	0.0484 µM	0.0336 µM	–	–
CACGGAAGAGUGGAUCACCCUCUUAAUAAACGAGGACCGGUACGGCCGCCACUCGAAAACCGUGACCUGUACGAAAAGUGCAGGA	0.0313 µM	0.202 µM	0.127 µM	0.0394 µM	0.437 µM
GGUAUGUAUUCGGAAACGAAUGCAUACCAUCGAGGACCGGUACGGCCGCCACUCGUGGCUGAUCAACAUGAGGAUCACCCAUGUA [Ex Tryptophan A 1]	0.0361 µM	0.0943 µM	0.0504 µM	0.0859 µM	0.0834 µM
